In US20240109954A1 (GENERAL HOSPITAL, published 2024):

How the values were obtained:
[1] = biological target: T1, EBOV GP displayed on vesicular stomatitis virus (VSV) pseudovirions (Ebola virus, UniProt Q05320 33-676); assay: cell-based or functional assay
T1 sequence: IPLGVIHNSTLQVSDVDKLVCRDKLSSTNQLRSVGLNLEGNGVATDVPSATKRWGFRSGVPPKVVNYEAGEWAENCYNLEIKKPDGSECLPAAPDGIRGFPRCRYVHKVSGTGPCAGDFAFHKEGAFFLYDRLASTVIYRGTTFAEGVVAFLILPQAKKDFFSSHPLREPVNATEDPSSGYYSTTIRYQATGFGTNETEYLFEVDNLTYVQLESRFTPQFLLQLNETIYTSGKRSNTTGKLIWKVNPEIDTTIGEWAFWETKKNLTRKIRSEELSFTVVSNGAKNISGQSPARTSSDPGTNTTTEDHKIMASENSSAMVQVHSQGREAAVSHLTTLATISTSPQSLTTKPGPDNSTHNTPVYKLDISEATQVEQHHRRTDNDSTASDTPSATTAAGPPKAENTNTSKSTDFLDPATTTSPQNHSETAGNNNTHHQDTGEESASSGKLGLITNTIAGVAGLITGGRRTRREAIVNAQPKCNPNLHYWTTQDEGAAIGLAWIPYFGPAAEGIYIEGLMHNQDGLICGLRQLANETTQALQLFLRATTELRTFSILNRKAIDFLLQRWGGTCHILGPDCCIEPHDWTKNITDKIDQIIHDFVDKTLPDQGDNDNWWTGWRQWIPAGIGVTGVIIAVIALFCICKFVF

[2] = biological target: T1, EBOV GP displayed on vesicular …; assay: cell-based or functional assay; remark: listed apart in the source
human FcγR3A (F158) [3] = biological target: T2, human FcγR3A (F158) (human, UniProt P08637 17-208); assay: SPR, mAb printed on chip, FcγR injected; SPR KD of Table 6: measurable but very weak (0.003-fold of IgG1)
T2 construct: also called huFcγR3A

mouse FcγRIII [4] = biological target: T3, mouse FcγRIII (mouse, UniProt P08508 31-215); assay: BLI, mAb on anti-human Fab-CH1 sensor, FcγR in solution; monomeric mAb:receptor affinity of Table 6 (weak binding)
T3 construct: also called mFcγRIII; mFcγR3
T3 sequence: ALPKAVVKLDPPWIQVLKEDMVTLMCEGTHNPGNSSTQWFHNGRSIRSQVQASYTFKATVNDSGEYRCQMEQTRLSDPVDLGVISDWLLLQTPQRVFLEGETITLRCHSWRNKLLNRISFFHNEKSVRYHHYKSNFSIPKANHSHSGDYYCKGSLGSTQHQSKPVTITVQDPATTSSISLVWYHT

human FcγR2B [5] = biological target: T4, human FcγR2B (human, UniProt P31994 43-217); assay: SPR, mAb printed on chip, FcγR injected; ND = not detected
T4 construct: also called huFcγR2B
T4 sequence: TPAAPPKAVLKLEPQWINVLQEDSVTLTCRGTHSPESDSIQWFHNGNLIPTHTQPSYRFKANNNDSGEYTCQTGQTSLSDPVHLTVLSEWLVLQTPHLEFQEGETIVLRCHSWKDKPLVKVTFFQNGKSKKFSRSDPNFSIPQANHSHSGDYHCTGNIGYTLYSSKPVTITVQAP

human FcγR3B [6] = biological target: T5, human FcγR3B (human, UniProt O75015 17-200); assay: as above
T5 construct: also called huFcγR3B

human FcγR2A (R131) [7] = biological target: T6, human FcγR2A (R131) (human, UniProt P12318 34-217); assay: SPR, mAb printed on chip, FcγR injected; fold-change of KD relative to IgG1, same SPR measurement
T6 construct: also called huFcγR2A
T6 sequence: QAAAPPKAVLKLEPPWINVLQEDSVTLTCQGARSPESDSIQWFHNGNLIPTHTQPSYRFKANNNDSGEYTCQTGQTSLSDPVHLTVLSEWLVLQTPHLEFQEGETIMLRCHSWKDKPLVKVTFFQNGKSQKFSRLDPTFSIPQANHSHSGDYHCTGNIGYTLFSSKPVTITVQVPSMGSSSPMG

human FcγR3A (F158) [8] = biological target: T2, human FcγR3A (F158); assay: as above
human FcγR2A (R131) [9] = biological target: T6, human FcγR2A (R131); assay: SPR, mAb printed on chip, FcγR injected; SPR KD of Table 6: measurable but very weak (0.03-fold of IgG1)
mouse FcγRIIb [10] = biological target: T7, mouse FcγRIIb (mouse, UniProt P08101 30-210); assay: BLI, mAb on anti-human Fab-CH1 sensor; ND = not detected
T7 construct: also called mFcγRIIb; mFcγR2b
T7 sequence: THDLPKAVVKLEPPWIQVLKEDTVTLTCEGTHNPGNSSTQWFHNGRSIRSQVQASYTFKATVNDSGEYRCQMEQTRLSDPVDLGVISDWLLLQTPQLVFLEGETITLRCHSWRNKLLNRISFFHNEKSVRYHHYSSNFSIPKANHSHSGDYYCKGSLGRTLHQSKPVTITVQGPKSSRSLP

mouse FcγRIV [11] = biological target: T8, mouse FcγRIV (mouse, UniProt A0A0B4J1G0 21-203); assay: as above
T8 construct: also called mFcγRIV
T8 sequence: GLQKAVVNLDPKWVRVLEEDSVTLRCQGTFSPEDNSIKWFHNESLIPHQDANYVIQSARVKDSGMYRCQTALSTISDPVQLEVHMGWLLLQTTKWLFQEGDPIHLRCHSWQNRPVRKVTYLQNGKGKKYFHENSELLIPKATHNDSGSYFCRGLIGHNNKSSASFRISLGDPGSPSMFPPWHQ

mouse FcγRI [12] = biological target: T9, mouse FcγRI (mouse, UniProt P26151 25-297); assay: as above
T9 construct: also called mFcγRI
T9 sequence: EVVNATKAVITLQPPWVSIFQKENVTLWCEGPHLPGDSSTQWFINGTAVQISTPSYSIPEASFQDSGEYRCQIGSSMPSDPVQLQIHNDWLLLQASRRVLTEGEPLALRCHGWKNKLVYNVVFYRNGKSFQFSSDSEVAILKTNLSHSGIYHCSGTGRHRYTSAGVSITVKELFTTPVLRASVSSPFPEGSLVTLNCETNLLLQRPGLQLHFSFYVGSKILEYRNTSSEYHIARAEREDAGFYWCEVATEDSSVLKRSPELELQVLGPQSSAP

mouse FcγRIIb [13] = biological target: T7, mouse FcγRIIb; assay: BLI, mAb on anti-human Fab-CH1 sensor, FcγR in solution
mouse FcγRIII [14] = biological target: T3, mouse FcγRIII; assay: as above
mouse FcγRIV [15] = biological target: T8, mouse FcγRIV; assay: as above
mouse FcγRI [16] = biological target: T9, mouse FcγRI; assay: as above
human FcγR2A (R131) [17] = biological target: T6, human FcγR2A (R131); assay: SPR, mAb printed on chip, FcγR injected
human FcγR2B [18] = biological target: T4, human FcγR2B; assay: SPR, mAb printed on chip, FcγR injected
human FcγR3B [19] = biological target: T5, human FcγR3B; assay: SPR, mAb printed on chip, FcγR injected
human FcγR3A (F158) [20] = biological target: T2, human FcγR3A (F158); assay: SPR, mAb printed on chip, FcγR injected
human FcγR2A (R131) [21] = biological target: T6, human FcγR2A (R131); assay: SPR, mAb printed on chip, FcγR injected; remark: listed apart in the source
mouse FcγRIIb [22] = biological target: T7, mouse FcγRIIb; assay: BLI, mAb on anti-human Fab-CH1 sensor, FcγR in solution; remark: listed apart in the source
mouse FcγRIII [23] = biological target: T3, mouse FcγRIII; assay: as above; remark: listed apart in the source
mouse FcγRIV [24] = biological target: T8, mouse FcγRIV; assay: as above; remark: listed apart in the source

T2 sequence (P08637 17-208): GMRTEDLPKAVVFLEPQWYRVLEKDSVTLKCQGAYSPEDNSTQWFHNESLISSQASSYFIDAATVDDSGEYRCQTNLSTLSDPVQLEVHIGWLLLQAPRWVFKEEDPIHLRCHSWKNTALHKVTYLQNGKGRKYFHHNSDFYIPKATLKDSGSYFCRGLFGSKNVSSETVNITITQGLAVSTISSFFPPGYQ
T5 sequence (O75015 17-200): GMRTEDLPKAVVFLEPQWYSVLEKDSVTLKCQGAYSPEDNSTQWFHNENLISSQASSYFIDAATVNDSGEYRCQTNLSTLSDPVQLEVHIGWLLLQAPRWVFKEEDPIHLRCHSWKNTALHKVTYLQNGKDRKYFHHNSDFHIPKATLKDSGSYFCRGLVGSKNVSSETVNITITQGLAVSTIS

B1: mIgG1 VIC16 (antibody, V domains shown)
VH: QVQFQQSGAELAKLGASVKMSCKASGYTFTKYWMHWIKQRPGQGLEWIGYINPSTGYSENNQKFKGKAILTADKSSSTAYMQLSSLTSDDSAVYYCVRGYDSHYYVMDYWGQGTSVTVSS
VL: DIVITQDTASLAVSRGQRATISCRASESVEYYGTTLMQWYQQRPGQPPKLLIYGASNVESGVPARFSGSGSGTDFSLNIHPVEEDDIAMYFCQQSRKVPYTFGGGTKLEIK
In the case of B1, the “IC50 (read off the curve) [Cont.]” value [1] is reported as about 0.3 µg/mL and the “IC50, neutralization of VSV pseudotyped to display EBOV GP” value [2] is reported as 0.34 µg/mL.

B2: VIC16-LALA (antibody)
heavy: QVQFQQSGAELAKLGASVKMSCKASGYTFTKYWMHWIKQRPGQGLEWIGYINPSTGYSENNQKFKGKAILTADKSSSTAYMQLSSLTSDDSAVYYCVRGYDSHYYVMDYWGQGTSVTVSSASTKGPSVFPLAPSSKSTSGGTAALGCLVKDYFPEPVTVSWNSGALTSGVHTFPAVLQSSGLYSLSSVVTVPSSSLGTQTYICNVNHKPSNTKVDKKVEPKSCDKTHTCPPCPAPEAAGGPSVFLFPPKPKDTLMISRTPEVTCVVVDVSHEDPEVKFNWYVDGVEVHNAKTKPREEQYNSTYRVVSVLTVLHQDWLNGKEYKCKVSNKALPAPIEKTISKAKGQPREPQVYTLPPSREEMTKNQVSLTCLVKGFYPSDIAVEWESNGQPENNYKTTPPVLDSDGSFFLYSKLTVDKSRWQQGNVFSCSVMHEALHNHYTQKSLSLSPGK
light: DIVITQDTASLAVSRGQRATISCRASESVEYYGTTLMQWYQQRPGQPPKLLIYGASNVESGVPARFSGSGSGTDFSLNIHPVEEDDIAMYFCQQSRKVPYTFGGGTKLEIKRTVAAPSVFIFPPSDEQLKSGTASVVCLLNNFYPREAKVQWKVDNALQSGNSQESVTEQDSKDSTYSLSSTLTLSKADYEKHKVYACEVTHQGLSSPVTKSFNRGEC
B2 was tested, and the Kd (human FcγR3A (F158) [3]) was 1700 µM, the Kd (mouse FcγRIII [4]) was 820 µM and the binding result (human FcγR2B [5]) was “no binding (tested: FcγR 10 µM to 0.005 µM)”. The binding result (human FcγR3B [6]) was “no binding (tested: FcγR 10 µM to 0.005 µM)”, the “fold-change relative to IgG1” value (human FcγR2A (R131) [7]) was 0.03 fold and the “fold-change relative to IgG1” value (human FcγR3A (F158) [8]) was 0.003 fold. The Kd (human FcγR2A (R131) [9]) was 892 µM, the binding result (mouse FcγRIIb [10]) was “no binding (tested: FcγR from 600 nM)” and the binding result (mouse FcγRIV [11]) was “no binding (tested: FcγR from 200 nM)”. B2: no binding (tested: FcγR from 200 nM) (mouse FcγRI [12]).

B3: VIC16-SDIEALGA (antibody)
heavy: QVQFQQSGAELAKLGASVKMSCKASGYTFTKYWMHWIKQRPGQGLEWIGYINPSTGYSENNQKFKGKAILTADKSSSTAYMQLSSLTSDDSAVYYCVRGYDSHYYVMDYWGQGTSVTVSSASTKGPSVFPLAPSSKSTSGGTAALGCLVKDYFPEPVTVSWNSGALTSGVHTFPAVLQSSGLYSLSSVVTVPSSSLGTQTYICNVNHKPSNTKVDKKVEPKSCDKTHTCPPCPAPELLAGPDVFLFPPKPKDTLMISRTPEVTCVVVDVSHEDPEVKFNWYVDGVEVHNAKTKPREEQYNSTYRVVSVLTVLHQDWLNGKEYKCKVSNKALPLPEEKTISKAKGQPREPQVYTLPPSREEMTKNQVSLTCLVKGFYPSDIAVEWESNGQPENNYKTTPPVLDSDGSFFLYSKLTVDKSRWQQGNVFSCSVMHEALHNHYTQKSLSLSPGK
light: DIVITQDTASLAVSRGQRATISCRASESVEYYGTTLMQWYQQRPGQPPKLLIYGASNVESGVPARFSGSGSGTDFSLNIHPVEEDDIAMYFCQQSRKVPYTFGGGTKLEIKRTVAAPSVFIFPPSDEQLKSGTASVVCLLNNFYPREAKVQWKVDNALQSGNSQESVTEQDSKDSTYSLSSTLTLSKADYEKHKVYACEVTHQGLSSPVTKSFNRGEC
B3 was tested, and the Kd (mouse FcγRIIb [13]) was 0.13 µM, the “fold-change relative to IgG1” value (mouse FcγRIIb [13]) was 114 fold and the Kd (mouse FcγRIII [14]) was 0.01 µM. For the same binder, the “fold-change relative to IgG1” value (mouse FcγRIII [14]) was 0.16 fold, the Kd (mouse FcγRIV [15]) was 0.001 µM and the “fold-change relative to IgG1” value (mouse FcγRIV [15]) was 235 fold. For the same binder, the Kd (mouse FcγRI [16]) was 0.1 µM, the “fold-change relative to IgG1” value (mouse FcγRI [16]) was 0.8 fold and the Kd (human FcγR2A (R131) [17]) was 1.6 µM. The “fold-change relative to IgG1” value (human FcγR2A (R131) [17]) was 19 fold, the Kd (human FcγR2B [18]) was 21 µM and the “fold-change relative to IgG1” value (human FcγR2B [18]) was 1.1 fold. The Kd (human FcγR3B [19]) was 3.2 µM, the “fold-change relative to IgG1” value (human FcγR3B [19]) was 7.8 fold and the Kd (human FcγR3A (F158) [20]) was 0.675 µM. The “fold-change relative to IgG1” value (human FcγR3A (F158) [20]) was 9 fold, the “fold increase in KD compared to the VIC16 human IgG1” value (human FcγR2A (R131) [21]) was 18 fold and the “fold increase in binding” value (mouse FcγRIIb [22]) was 4 fold. For the same binder, the “fold decrease in binding compared to IgG1” value (mouse FcγRIII [23]) was 6 fold and the “fold increase in binding” value (mouse FcγRIV [24]) was 14 fold.
